Article PMC9674588, “Molecular recognition of a membrane-anchored HIV-1 pan-neutralizing epitope” (Communications Biology, 2022)
“Also recorded” adds a separate entry of the source. Where no end group is shown, it is not given here.

Columns and labels:
[1] = Infrared spectroscopy (amide I) of peptides reconstituted in lipid bilayers; type: physicochemical; details: for IR amide-I band area, 1630 cm^−1 (solvated helices) / IR amide-I band area, 1642 cm^−1 (helix-helix interactions/disordered) / IR amide-I band area, 1655 cm^−1 (α-helix) / IR amide-I band area, 1670 cm^−1 (turns): monounsaturated PC, D2O PBS
Description: In addition, the lipid bilayer distance covered by the hydrocarbon acyl chains strongly conditions the favorable interactions between TMDs and lipids, so that a mismatch between this distance and the TMD length can give rise to alterations in the structure and function of the integral membrane proteins. Therefore, to rule out DC effects on the conformations adopted by the reconstituted MPER-TMD peptides, we performed IR experiments and varied systematically this parameter utilizing a complete series of monounsaturated PCs (i.e., diC14:1PC, diC16:1PC, diC18:1PC, diC20:1PC and diC22:1PC)[55].
Infrared spectra were recorded in a Bruker Tensor 27 spectrometer equipped with a mercury-cadmium-telluride detector using a Peltier-based temperature controller (TempCon, BioTools Inc., Wauconda, IL) with calcium fluoride cells (BioCell, BioTools Inc., Wauconda, IL). Lipid vesicles with the peptides reconstituted were lyophilized and subsequently prepared at 3 mg/mL in D2O buffer (PBS). A 25 μL sample aliquot was deposited on a cell that was sealed with a second cell. Reference windows without peptide were prepared similarly. Typically, 1000 scans were collected for each background and sample, and the spectra were obtained with a nominal resolution of 2 cm^−1. Data treatment and band decomposition of the original amide I have been described elsewhere.

[2] = Breakthrough force of POPC SPBs (FS-AFM); details: peptide-to-lipid 1:50
Description: Permeabilization of single vesicles correlated with effects of the reconstituted peptides on the nanomechanical stability of SPBs analyzed by FS-AFM[57] (Fig. 6b). In this approach, we measured the breakthrough forces of the different SPBs to quantitatively determine the nanomechanical resistance to membrane rupture. By comparing the AFM tip indentations through the different bilayer systems at the same approach speed, we measured the discontinuity in the approach curve which corresponds to the breakthrough force; a parameter widely used to assign the mechanical stability of SPBs[57]. […] This increase was even larger than that observed in an SPB containing 50 mol % cholesterol, which was added as a stiffening-control sample to the analysis. […]
SPBs were produced by the vesicle adsorption method and their topography analyzed using a Nanowizard III AFM (JPK Instruments) under contact mode. […]
Force spectroscopy data for SPB breakthrough measurements were collected using SNL10 Si3N4 cantilever (Bruker, Santa Barbara, CA, USA) with a nominal spring constant of 0.35 N/m, at a speed of 1 µm/s and applying 10 nN of maximum force. Discontinuities in the force versus separation approach curve were determined for each of the indentation curves as reproducible jumps within the extended traces using JPK data processing software.

[3] = Vesicle flotation (incorporation of reconstituted peptides into membranes); type: physicochemical; details: POPC, 1:50 mol:mol, flotation in sucrose gradient, Western blot
Description: Supplementary Figure 4: Incorporation of reconstituted peptides into membranes. (a) Diagram illustrating the Liposome flotation method. Liposome-peptide co mplex es were subjected to ultracentrifugation in a sucrose gradi ent after the reconstitution process. (b) The pres ence of th e peptides in the floated and non- floated fractions o f the gradient and in the original sample (input) as reveal ed b y Western Blot anal ysis aft er Tris -Tricine SDS-PAGE separation. Line plots below […]
liposomes. The peptide-to-lipid ratio was 1:50 (mol:mol).
(1 picture or pasted object on this page, not shown here)

[4] = test system: Fab 10E8; assay: Binding of KK114-Fab 10E8 to single GUVs containing the peptides reconstituted (confocal microscopy); details: for Fab 10E8 binding vs TMD length and bilayer thickness (in words): GUVs of diC14:1PC, POPC, diC22:1PC
Method: To that end, we quantified antibody binding to single vesicles by confocal microscopy of Giant Unilamellar Vesicles (GUVs) incubated with fluorescently labeled Fab 10E8[36],[47].
Thus, to establish the influence of the bilayer thickness on the accessibility to the 10E8 epitope, we selected lipid bilayers made of diC14:1PC and diC22:1PC, which are respectively thinner and thicker than those made of POPC (C16:0-C18:1PC)[52],[53].
To prepare lipid bilayers containing reconstituted peptide, lipids and MPER-TMD-derived peptides were mixed in organic solvent prior to the production of the liposomes. Briefly, POPC dissolved in chloroform:methanol 1:2 (vol:vol) was mixed with peptide dissolved in HFIP at the desired peptide-to-lipid molar ratio. The mixture was dried under a N2 stream and traces of organic solvents were removed by 1 h vacuum pumping. Subsequently, the dried lipid films were subjected to 2 h of gentle hydration with H2O using a N2 gas bubbler to facilitate further dispersion of the dried lipid-peptide film in PBS aqueous buffer. Next, the multilamellar vesicles were bath sonicated (1 h, 55 °C) and subjected to 15 freeze and thaw cycles to obtain unilamellar vesicles.
For binding experiments, NBD-labeled GUVs were produced following the electro-formation method as previously described[47]. In brief, a total of 2 mM of lipid was dissolved in 200 μL CHCl3:CH3OH with the fluorescent probe NBD-PE (0.5%). When required, peptide dissolved in 10% (v/v) HFIP was included in the organic phase at 1:250 peptide-to-lipid molar ratio. The GUVs were added to a bovine serum albumin (BSA)-blocked microscope chamber that already included 250 nM of 10E8-based Fabs conjugated with the KK114 probe at residue C216HC, and were incubated for 15 min prior to imaging. […] Confocal microscopy images were acquired on an inverted confocal fluorescence microscope (Nikon Eclipse TE-2000, Nikon, Nikon Instruments, Tokyo, Japan). NBD-stained GUVs and Fabs conjugated with the KK114 probe were excited at 476 nm and 637 nm, respectively. […] The band pass filters used were 515/30 and Long Pass 650 nm. […]

[5] = GUV permeabilization (soluble KK114 entry); details: POPC GUVs with peptide reconstituted
Method: When required, peptide dissolved in 10% (v/v) HFIP was included in the organic phase at 1:250 peptide-to-lipid molar ratio. […] For GUV permeabilization assays, GUVs were added to a BSA-blocked microscope chamber that already included the unconjugated and soluble KK114 dye, and were incubated for 15 min prior to imaging. Confocal microscopy images were acquired on an inverted confocal fluorescence microscope (Nikon Eclipse TE-2000, Nikon, Nikon Instruments, Tokyo, Japan). […] The band pass filters used were 515/30 and Long Pass 650 nm. The objective used was a 63X oleo immersion with a numerical aperture (NA) of 1.2.

[6] = test system: Fab 10E8; assay: AFM single-molecule force spectroscopy of Fab 10E8-peptide unbinding in POPC SPBs; type: binding; details: for MPRF (most probable rupture force), mean: 1:50
Method: SPBs were produced by the vesicle adsorption method and their topography analyzed using a Nanowizard III AFM (JPK Instruments) under contact mode. Briefly, approximately 30 µl of the vesicle suspensions described above were deposited onto freshy cleaved mica disks (area 15 mm^2) preincubated with 30 µl of 150 mM KCl, 10 mM Tris, pH = 7.4 (measurement buffer) and incubated for 30 min at room temperature, leading to the formation of SPBs. The samples were carefully rinsed with measurement buffer before the AFM experiment and always kept under aqueous environment. BL-AC40-C2 Si3N4 cantilevers (Olympus, Japan) with a nominal spring constant of 0.09 N/m were used for bilayer imaging with 0.5 nN of force applied.
For single molecule force spectroscopy, MLCT-BIO probes (Bruker, Santa Barbara, CA USA) were functionalized with Fab 10E8 using well established protocols. To that end, cantilevers were first rinsed with acetone and water, exposed to UV-ozone and coated with 3-Aminopropyldimethylethoxysilane (APDMES). They were then incubated with glutaraldehyde and finally with Fab. Finally, to passivate possible unreacted aldehyde moieties, cantilevers were incubated in 0.1% Bovine Serum Albumin (BSA) for 1 h at room temperature and rinsed in measurement buffer prior to use. Force maps were recorded using a maximum applied force of 0.2 nN, a varying contact time of 0.5, 1, 2 and 5 s and varying retraction speeds of 0.1 µm/s, 2 µm/s and 10 µm/s. Data were analyzed with the data processing software from JPK Instruments (Berlin, Germany).
To determine the MPRF at a given loading rate the frequency histograms of the measured forces were fitted to a Gaussian distribution (Eq. 1) and its maximum calculated.1 y=Amplitude⋅exp−0.5⋅x−Mean/SD^2
MPRF is a function of the loading rate as defined by (Eq. 2):2 MPRF=kβ⋅T/χβlnrf⋅χβ/koff⋅kβ⋅T where kβ is Boltzmann constant, T is the temperature, koff is the natural dissociation rate at zero force and rf is the loading rate.
These parameters can be actually obtained from the slope of the linear fit of the data, and by linearly extrapolating the experimental data to zero external force, respectively.

[7] = hydrocarbon thickness DC 22.8 Å
[8] = reconstituted in POPC bilayers, 1:50

Substance | IR amide-I band area, 1630 cm^−1 (solvated helices) ([1]; DC 25.6 Å) [%] | IR amide-I band area, 1642 cm^−1 (helix-helix interactions/disordered) ([1]; DC 25.6 Å) [%] | IR amide-I band area, 1655 cm^−1 (α-helix) ([1]; DC 25.6 Å) [%] | IR amide-I band area, 1670 cm^−1 (turns) ([1]; DC 25.6 Å) [%] | IR amide-I band area, 1630 cm^−1 (solvated helices) ([1]; DC 29 Å) [%] | IR amide-I band area, 1642 cm^−1 (helix-helix interactions/disordered) ([1]; DC 29 Å) [%] | IR amide-I band area, 1655 cm^−1 (α-helix) ([1]; DC 29 Å) [%] | IR amide-I band area, 1670 cm^−1 (turns) ([1]; DC 29 Å) [%] | IR amide-I band area, 1630 cm^−1 (solvated helices) ([1]; DC 32 Å) [%] | IR amide-I band area, 1642 cm^−1 (helix-helix interactions/disordered) ([1]; DC 32 Å) [%] | IR amide-I band area, 1655 cm^−1 (α-helix) ([1]; DC 32 Å) [%] | IR amide-I band area, 1670 cm^−1 (turns) ([1]; DC 32 Å) [%] | IR amide-I band area, 1630 cm^−1 (solvated helices) ([1]; DC 35 Å) [%] | IR amide-I band area, 1642 cm^−1 (helix-helix interactions/disordered) ([1]; DC 35 Å) [%] | IR amide-I band area, 1655 cm^−1 (α-helix) ([1]; DC 35 Å) [%] | IR amide-I band area, 1670 cm^−1 (turns) ([1]; DC 35 Å) [%] | IR amide-I band area, 1630 cm^−1 (solvated helices) [1, 7] [%] | IR amide-I band area, 1642 cm^−1 (helix-helix interactions/disordered) [1, 7] [%] | IR amide-I band area, 1655 cm^−1 (α-helix) [1, 7] [%] | IR amide-I band area, 1670 cm^−1 (turns) [1, 7] [%] | other results
C-MPER-TMD709: Env residues 671–709, HXB2 numbering, which included the nominal Env TMD sequence (Env residues 684–709) (NWFNITNWLWYIKLFIMIVGGLVGLRIVFAVLSIVNRVR; UniProt P04578 671-709, looked up, fragment) | 18.9 | 31 | 41.6 | 4.9 | 14 | 33.4 | 45.2 | 4.6 | 16 | 34.8 | 43.2 | 3.4 | 15.8 | 40 | 38.5 | 2.9 | 20 | 34.5 | 33.8 | 6.4 | IR amide-I absorption maximum [1, 8]: around 1650 cm^−1; IR amide-I band component [1, 8]: 1642 cm⁻¹; breakthrough force (in words) [2]: increased the values of the forces at which rupture was observed; incorporation into membranes (in words) [3]: total incorporation; Fab 10E8 binding vs TMD length and bilayer thickness (in words) [4]: C-MPER-TMDLLA-709 > C-MPER-TMD709 > C-MPER-TMD700; Fab 10E8 binding to GUVs (in words) ([4]; POPC GUVs, peptide-to-lipid 1:250, 250 nM Fab): appeared to bind more efficiently to C-MPER-TMD709-containing vesicles than to the N/C-MPER683-containing ones; permeabilization (in words) [5]: viewed as empty spheres; also recorded: essentially impermeable; koff ratio among peptides ([6]; N/C-MPER683 vs C-MPER-TMD709, POPC SPBs): ≈ 22; attachment (binding) frequency (in words) ([6]; POPC SPBs, vs N/C-MPER683, contact time series, retraction 2 μm s^−1): attachment appeared to occur at higher frequency; MPRF (in words) ([6]; POPC SPBs, contact time 0.5 s, loading rate 41 nN s^−1, vs N/C-MPER683): clearly shifted to higher values; t0.5(N/C-MPER)/t0.5(C-MPER-TMD) ([6]; interaction time for half maximal probability of binding, POPC SPBs): ≈ 1.4; MPRF (most probable rupture force), mean ([6]; ln (loading rate pN/s) 3.62033, POPC SPBs): 33.4766 pN; MPRF (most probable rupture force), mean ([6]; ln (loading rate pN/s) 4.62006, POPC SPBs): 53.13 pN; MPRF (most probable rupture force), mean ([6]; ln (loading rate pN/s) 6.62009, POPC SPBs): 93.3506 pN; MPRF (most probable rupture force), mean ([6]; ln (loading rate pN/s) 7.62012, POPC SPBs): 73.97 pN; MPRF (most probable rupture force), mean ([6]; ln (loading rate pN/s) 8.62012, POPC SPBs): 81.12 pN; MPRF (most probable rupture force), mean ([6]; ln (loading rate pN/s) 9.62012, POPC SPBs): 90.66 pN; MPRF (most probable rupture force), mean ([6]; ln (loading rate pN/s) 10.6201, POPC SPBs): 135 pN
C-MPER-TMD700: Env residues 671–700, HXB2 numbering, containing a minimal TMD anchor and Lys-tags added at both ends (NWFNITNWLWYIKLFIMIVGGLVGLRIVFA; also: Lys-tags added at both ends, length not given here; UniProt P04578 671-700, looked up, fragment) | 8.1 | 31.2 | 52.3 | 7 | 8.4 | 39.3 | 48.1 | 2.6 | 6.4 | 39.8 | 49.8 | 3.9 | 3.1 | 52 | 39.7 | 1 | 5.8 | 35.1 | 51.8 | 7.4 | Fab 10E8 binding vs TMD length and bilayer thickness (in words) [4]: C-MPER-TMDLLA-709 > C-MPER-TMD709 > C-MPER-TMD700
